Results from PMC3399532 (Prion, 2012).

Molecular target: MoPrP-Fc (mouse, UniProt P04925 23-230)
Assay: ELISA

MoPrP-Fc, sequence (P04925 23-230): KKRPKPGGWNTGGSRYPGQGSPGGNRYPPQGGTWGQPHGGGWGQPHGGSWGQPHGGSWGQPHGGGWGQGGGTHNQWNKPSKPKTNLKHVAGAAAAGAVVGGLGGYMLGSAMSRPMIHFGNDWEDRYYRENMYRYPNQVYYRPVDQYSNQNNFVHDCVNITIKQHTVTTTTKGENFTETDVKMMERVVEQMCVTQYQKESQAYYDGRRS

B1: mouse (Mo) Dpl (26–155) (domain or fragment)
chain: ARGIKHRFKWNRKVLPSSGGQITEARVAENRPGAFIKQGRKLDIDFGAEGNRYYAANYWQFPDGIYYEGCSEANVTKEMLVTSCVNATQAANQAEFSREKQDSKLHQRVLWRLIKEICSAKHCDFWLERG
**Q.** Does B1 bind?
**A.** binds
